The record followed here is IntAct's records for PubMed 10449590.

Sequences and labels used below:
B1: 14-3-3 protein epsilon (Homo sapiens), P62258 (parent)
chain: MDDREDLVYQAKLAEQAERYDEMVESMKKVAGMDVELTVEERNLLSVAYKNVIGARRASWRIISSIEQKEENKGGEDKLKMIREYRQMVETELKLICCDILDVLDKHLIPAANTGESKVFYYKMKGDYHRYLAEFATGNDRKEAAENSLVAYKAASDIAMTELPPTHPIRLGLALNFSVFYYEILNSPDRACRLAKAAFDDAIAELDTLSEESYKDSTLIMQLLRDNLTLWTSDMQGDGEEQNKEALQDVEDENQ
B2: Transcription initiation factor IIB (Homo sapiens), Q00403 (parent)
chain: MASTSRLDALPRVTCPNHPDAILVEDYRAGDMICPECGLVVGDRVIDVGSEWRTFSNDKATKDPSRVGDSQNPLLSDGDLSTMIGKGTGAASFDEFGNSKYQNRRTMSSSDRAMMNAFKEITTMADRINLPRNIVDRTNNLFKQVYEQKSLKGRANDAIASACLYIACRQEGVPRTFKEICAVSRISKKEIGRCFKLILKALETSVDLITTGDFMSRFCSNLCLPKQVQMAATHIARKAVELDLVPGRSPISVAAAAIYMASQASAEKRTQKEIGDIAGVADVTIRQSYRLIYPRAPDLFPTDFKFDTPVDKLPQL
partner: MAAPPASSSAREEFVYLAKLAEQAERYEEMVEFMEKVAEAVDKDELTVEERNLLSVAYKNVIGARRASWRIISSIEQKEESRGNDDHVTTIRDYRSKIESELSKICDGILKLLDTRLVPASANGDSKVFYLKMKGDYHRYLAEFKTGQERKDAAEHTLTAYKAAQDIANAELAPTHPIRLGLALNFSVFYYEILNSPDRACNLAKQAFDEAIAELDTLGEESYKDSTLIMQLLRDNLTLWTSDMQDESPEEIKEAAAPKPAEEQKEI
B3: 14-3-3-like protein GF14 phi (Arabidopsis thaliana (Mouse-ear cress)), P46077 (parent)
chain: B2 partner
partner: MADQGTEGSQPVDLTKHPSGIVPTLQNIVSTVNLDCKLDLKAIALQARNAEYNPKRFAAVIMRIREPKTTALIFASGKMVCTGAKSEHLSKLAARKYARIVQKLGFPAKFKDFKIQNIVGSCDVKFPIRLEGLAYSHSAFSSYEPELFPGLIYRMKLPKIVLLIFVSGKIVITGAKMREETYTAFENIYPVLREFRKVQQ
B4: 14-3-3-like protein GF14 phi (Arabidopsis thaliana (Mouse-ear cress)), P46077 (parent)
chain: B2 partner
partner: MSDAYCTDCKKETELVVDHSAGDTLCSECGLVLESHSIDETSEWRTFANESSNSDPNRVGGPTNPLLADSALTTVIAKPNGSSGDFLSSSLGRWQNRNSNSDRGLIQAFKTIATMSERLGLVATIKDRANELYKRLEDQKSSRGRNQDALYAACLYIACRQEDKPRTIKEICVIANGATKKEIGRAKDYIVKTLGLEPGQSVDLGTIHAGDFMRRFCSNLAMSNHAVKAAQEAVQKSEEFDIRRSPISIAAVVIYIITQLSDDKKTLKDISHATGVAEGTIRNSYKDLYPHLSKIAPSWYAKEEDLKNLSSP

The variants in the first assay derive from B1. Conditions: with tbp_human TBP.
In the case of L175A;N176A, the “effect of a mutation on the interaction” value is on record as “decreasing interaction”. As for V179A;F180A, the “effect of a mutation on the interaction” value was “decreasing interaction”. Consider F177A;S178A, for which the “effect of a mutation on the interaction” value is “disrupting interaction”.

In the next assay the parent is B2. Conditions: with 14334_arath GRF4, P46077.
Regarding R185E;R193E, the “effect of a mutation on the interaction” value was “decreasing interaction”.

Another assay covers variants of B3. Conditions: with tbp2_arath TBP2, P28148.
In the case of L184A;N185A, the “effect of a mutation on the interaction” value is on record as “decreasing interaction”. For the variant V188A;F189A, the “effect of a mutation on the interaction” value was “decreasing interaction”.

F186A;S187A: the “effect of a mutation on the interaction” value is listed as “disrupting interaction”.

Variants of B4 are the subject of a further assay. Conditions: with tf2b1_arath TFIIB1, P48512.
Regarding L184A;N185A, the “effect of a mutation on the interaction” value is reported as “decreasing interaction”. Turning to F186A;S187A, the “effect of a mutation on the interaction” value is recorded as “disrupting interaction”. As for V188A;F189A, the “effect of a mutation on the interaction” value is “decreasing interaction”.
